Common to all, as to test: cell-based or functional assay
For test [1], the target named is HIV-1 Env of pseudovirus AC10 (HIV-1).
Test [2] has as its target HIV-1 Env of pseudovirus REJ04541 (HIV-1).
Test [3] has as its target HIV-1 Env of pseudovirus Du172 (HIV-1).
Test [4] deals with HIV-1 envelope glycoprotein (Env) of isolate MG RM-A-002 (HIV-1).
Test [5] concerns the target HIV-1 Env of isolate MGRM-Chronic-B-020 (subtype B), on pseudovirus (HIV-1).
The target in test [6] is HIV-1 Env of isolate MG RM-C-020 (HIV-1).
Test [7] has as its target HIV-1 Env of isolate MGRM-F1-015 (subtype F) (HIV-1).
Test [8] concerns the target HIV-1 envelope glycoprotein (Env) of isolate MG RM-A-008 (HIV-1).
In test [9] the target is HIV-1 Env of pseudovirus 98CN006 (HIV-1).
Test [10] concerns the target HIV-1 92TH021 envelope glycoprotein (Env), clade AE pseudovirus (HIV-1).
The target in test [11] is HIV-1 MGRM-D-001 envelope glycoprotein (Env), clade D pseudovirus (HIV-1).
The target in test [12] is HIV-1 JRFL envelope glycoprotein (Env), clade B pseudovirus (HIV-1).
Test [13] has as its target HIV-1 MGRM-C-028 envelope glycoprotein (Env), clade C pseudovirus (HIV-1).
The target in test [14] is HIV-1 envelope glycoprotein (Env) of isolate 92TH021 (HIV-1).
Test [15] addresses HIV-1 envelope glycoprotein (Env) of isolate NL43 (HIV-1).
Test [16] has as its target HIV-1 envelope glycoprotein (Env) of isolate MGRM-C-026 (HIV-1).
Test [17] has as its target HIV-1 envelope glycoprotein (Env) of isolate MGRM-D-001 (HIV-1).
The target of test [18] is HIV-1 envelope glycoprotein (Env) of isolate MGRM-C-028 (HIV-1).
Test [19] has as its target HIV-1 MGRM-C-026 Env (HIV-1 isolate MGRM-C-026 (clade C)).
In test [20] the target is HIV-1 93IN905 Env (HIV-1 isolate 93IN905 (clade C)).
Test [21] deals with HIV-1 MGRM-C-027 envelope glycoprotein (Env) (HIV-1).
Test [22] deals with HIV-1 93UG077 envelope glycoprotein (Env) (HIV-1).
Test [23] addresses HIV-1 JR-CSF Env N339A (HIV-1 isolate JR-CSF) (UniProt P20871).
The target in test [24] is HIV-1 MGRM-C-026 Env (pseudovirus) (HIV-1).
For test [25], the target named is HIV-1 JR-CSF Env S306A (HIV-1 (isolate JR-CSF, clade B)) (UniProt P20871).
Test [26] concerns the target HIV-1 92BR020 envelope glycoprotein (Env) on virus (HIV-1, clade B, isolate 92BR020).
Test [27] has as its target HIV-1 MGRM-D-001 envelope glycoprotein (Env) on virus (HIV-1, clade D, isolate MGRM-D-001).
Test [28] concerns the target HIV-1 92UG005 envelope glycoprotein (Env) on virus (HIV-1, clade D, isolate 92UG005).
For test [29], the target named is HIV-1 92UG024 envelope glycoprotein (Env) on virus (HIV-1, clade D, isolate 92UG024).
Test [30] addresses HIV-1 NL43 envelope glycoprotein (Env) on virus (HIV-1, clade B, isolate NL43).
The target of test [31] is HIV-1 Env of isolate MGRM-C-026 (clade C) (HIV-1).
The target in test [32] is HIV-1 Env of isolate 94UG103 (clade A) (HIV-1).

Here are results for ten substances from patent US20240132578A1.

Chain of 1443_C16 (PG16) (TCN-116) (antibody) (VH): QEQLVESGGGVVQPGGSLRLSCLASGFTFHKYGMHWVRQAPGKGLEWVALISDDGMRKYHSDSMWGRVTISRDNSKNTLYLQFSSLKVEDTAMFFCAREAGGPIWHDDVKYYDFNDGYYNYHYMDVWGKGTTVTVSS
Chain of 1443_C16 (PG16) (TCN-116) (antibody) (VL): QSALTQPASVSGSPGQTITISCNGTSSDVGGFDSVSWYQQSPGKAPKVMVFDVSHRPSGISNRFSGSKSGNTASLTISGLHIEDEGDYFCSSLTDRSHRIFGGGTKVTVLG
Chain of 5329_C19 (PGT-136) (antibody) (VH): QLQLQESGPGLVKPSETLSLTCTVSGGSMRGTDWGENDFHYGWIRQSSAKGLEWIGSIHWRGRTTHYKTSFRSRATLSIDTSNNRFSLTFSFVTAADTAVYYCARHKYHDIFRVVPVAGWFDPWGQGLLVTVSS
Chain of 5329_C19 (PGT-136) (antibody) (VL): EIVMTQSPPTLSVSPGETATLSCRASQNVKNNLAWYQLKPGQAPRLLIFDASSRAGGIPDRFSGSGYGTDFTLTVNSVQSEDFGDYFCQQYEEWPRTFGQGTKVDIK

Take 1443_C16 (PG16) (TCN-116) (antibody): the IC50, pseudovirus neutralization (TZM-bl assay) in test [1], in [2] and in test [3] was under 0.01 µg/mL each time.
For orientation: IC50 means the concentration that gives 50% inhibition. The low end stands for greater potency, the high end for weaker potency. As to PGV04 (antibody), the IC50 in test [4] amounted to 0.093 µg/mL; in [8], 0.555 µg/mL. In test [5], this substance registered an IC50, single-round pseudovirus neutralization of 1.26 µg/mL. Moreover, the IC50 (µg/mL), pseudovirus neutralization in test [6] turned out to be 0.112 µg/mL; in [7], 0.179 µg/mL. The IC50, pseudovirus neutralization in test [9] stood at 1.32 µg/mL.
Take 4858_P08 (PGT-123) (antibody): in [10], the IC50, pseudovirus neutralization is over 10 µg/mL; the IC80 (pseudovirus neutralization) was over 10 µg/mL; the IC90 (pseudovirus neutralization) is over 10 µg/mL; the IC95 (pseudovirus neutralization) is over 10 µg/mL. Besides, in test [11], the IC50, pseudovirus neutralization worked out at 0.215 µg/mL; the IC80 (pseudovirus neutralization) was found to be 0.678 µg/mL; the IC90 (pseudovirus neutralization) came to 1.31 µg/mL; the IC95 (pseudovirus neutralization) stood at 2.33 µg/mL. Also, in [12], the IC50, pseudovirus neutralization was 0.0283 µg/mL; the IC80 (pseudovirus neutralization) is 0.0904 µg/mL; the IC90 (pseudovirus neutralization) was 0.178 µg/mL; the IC95 (pseudovirus neutralization) is 0.332 µg/mL. In addition, in test [13], the IC50, pseudovirus neutralization is 0.443 µg/mL; the IC80 (pseudovirus neutralization) came out at 2.8 µg/mL; the IC90 (pseudovirus neutralization) came to 7.11 µg/mL; the IC95 (pseudovirus neutralization) is over 10 µg/mL.
In the case of 5141_B17 (PGT-126) (antibody), the Neutralization IC80 in test [14] is 1.62 µg/mL; in test [15] it was over 10 µg/mL; in test [16], 0.0345 µg/mL; in [17] it was 0.333 µg/mL; in [18], 2.62 µg/mL. Besides, the Neutralization IC90 in [14] is 6.91 µg/mL; in [15] it was over 10 µg/mL; in test [16] it was 0.0831 µg/mL; in [17], 0.832 µg/mL; in [18], over 10 µg/mL. Besides, the Neutralization IC95 in test [14] was over 10 µg/mL; in test [15], over 10 µg/mL; in test [16] it was 0.185 µg/mL; in test [17], 1.8 µg/mL; in [18] it was over 10 µg/mL. In addition, the neutralization IC50 in test [14] is 0.115 µg/mL; in [15], over 10 µg/mL; in test [16] it was 0.0076 µg/mL; in [17], 0.0639 µg/mL; in [18], 0.283 µg/mL.
For 4838_L06 (PGT-121) (antibody), the Neutralization IC95 in [19] was found to be 0.0687 µg/mL. Also, in [20], the Neutralization IC80 was determined as 0.0302 µg/mL and the Neutralization IC90 is 0.0645 µg/mL.
In test [21], 5329_C19 (PGT-136) (antibody) returned a Neutralization IC80 of over 10 µg/mL, a Neutralization IC90 of over 10 µg/mL, a Neutralization IC95 of over 10 µg/mL and a neutralization IC50 of over 10 µg/mL. In test [22], this substance returned a Neutralization IC80 of over 10 µg/mL, a Neutralization IC90 of over 10 µg/mL, a Neutralization IC95 of over 10 µg/mL and a neutralization IC50 of over 10 µg/mL.
Turning to 5147_N06 (PGT-130) (antibody), the Fold IC50 increase relative to wild-type in test [23] stood at 0.2 fold.
As to 5123_A06 (PGT-125) (antibody), in test [24], the Neutralization by PGT-125, IC50 was determined as 0.0106 µg/mL; the Neutralization by PGT-125, IC80 came to 0.035 µg/mL; the Neutralization by PGT-125, IC90 is 0.0705 µg/mL; the Neutralization by PGT-125, IC95 was determined as 0.134 µg/mL. Moreover, the Fold IC50 increase relative to wild-type in [25] is 1.2 fold.
Take 4877_D15 (PGT-122) (antibody): the Neutralization IC80 was 0.0929 µg/mL in [26]; 4.48 µg/mL in test [27]; over 10 µg/mL in test [28]; over 10 µg/mL in test [29]; over 10 µg/mL in test [30]. For the same substance, the Neutralization IC90 was 0.168 µg/mL in [26]; over 10 µg/mL in test [27]; over 10 µg/mL in test [28]; over 10 µg/mL in test [29]; over 10 µg/mL in test [30]. Besides, the Neutralization IC95 in [26] was 0.289 µg/mL; in test [27], over 10 µg/mL; in test [28], over 10 µg/mL; in [29], over 10 µg/mL; in [30], over 10 µg/mL. Moreover, the neutralization IC50 was 0.0337 µg/mL in [26]; 0.867 µg/mL in test [27]; over 10 µg/mL in test [28]; over 10 µg/mL in test [29]; over 10 µg/mL in test [30].
In turn, 1496_C09 (PG9) (TCN-109) (antibody) came in with a neutralization IC50 in test [31] of 0.113 µg/mL. For the same substance, in test [32], the Neutralization IC80 was found to be 1.95 µg/mL, the Neutralization IC90 was found to be 5.54 µg/mL and the neutralization IC50 was determined as 0.31 µg/mL.
